The source of these data is patent CN113817050A (WUHAN INST OF BIOLOGICAL PRODUCTS CO LTD, dated 2021).

Assay [1] concerns the target SARS-CoV-2 RBD结构域重组蛋白(Sino公司，货号40592-V05H) (SARS-CoV-2 (2019-nCoV), UniProt P0DTC2 319-541).
Assay [2] concerns the target SARS-CoV-2刺突S1亚基蛋白(Sino公司，货号:40591-V02H) (SARS-CoV-2 (2019-nCoV), UniProt P0DTC2 16-685).
The target of assay [3] is T1, SARS-CoV-2刺突S1-His重组蛋白(Sino公司，货号:40591-V08H) (SARS-CoV-2 (2019-nCoV), UniProt P0DTC2 16-685).
T1 construct: domain: S1; also called S1蛋白; 刺突蛋白S1
The assay can be described thus: ELISA, S1-His coated at 1.0 μg/mL, detection by goat anti-human IgG-HRP. On the technique in general: In an ELISA, binding on a coated surface is turned into a signal by an enzyme label.

B1: 抗SARS-CoV-2的单克隆抗体1H8 (antibody, V domains shown)
VH: EVQLVESGGGLVQPGGSLRLSCAASEITVSSNYMNWVRQAPGKGLEWVSVIYSGGTTYYADSVKGRFTISRDNSENTLYLQMNSLRAEDTAVYYCARDLMEVGGMDVWGQGTTVTVSS
VL: DIVMTQSPSSLSASVGDRVTITCRASQGVSNYLAWYQQKPGKVPKLLIYAASTLQSGVPSRFSGSRSGTDFTLTISSLQPEDVATYYCQNYNSAPFAFGPGTKVEIK
notes: also called 人源抗SARS-CoV-2抗体1H8; 1H8抗体
Usually EC50 stands for the midpoint of the concentration-response curve. By IC50 is commonly meant the concentration at which inhibition is half-maximal. As to B1, the figures for the EC50 in assay [1] and in assay [3] were 0.035 nM and 0.054 nM, respectively. The IC50 amounted to 3.6 nM in assay [1] and 5.76 nM in assay [2].
